Laboratory results from ChEMBL document CHEMBL2074115, “Anthracyclines modulate multidrug resistance protein (MRP) mediated organic anion transport” (Biochim Biophys Acta, 1997).

Columns and labels:
[1] = substrate: N[C@@H](CCC(=O)N[C@@H](CSSC[C@H](NC(=O)CC[C@H](N)C(=O)O)C(=O)NCC(=O)O)C(=O)NCC(=O)O)C(=O)O; experiment: (§1) TP_TRANSPORTER: uptake in membrane vesicles from GLC4/ADR cells; assay type: functional, cell membranes, GLC-4/ADR, Membrane vesicle
[2] = substrate: N[C@@H](CCC(=O)N[C@H](CSc1ccc([N+](=O)[O-])cc1[N+](=O)[O-])C(=O)NCC(=O)O)C(=O)O; experiment: as §1; assay type: functional, cell membranes, GLC-4/ADR, Membrane vesicle

B1: Multidrug resistance-associated protein 1 (Homo sapiens) (protein)
chain: MALRGFCSADGSDPLWDWNVTWNTSNPDFTKCFQNTVLVWVPCFYLWACFPFYFLYLSRHDRGYIQMTPLNKTKTALGFLLWIVCWADLFYSFWERSRGIFLAPVFLVSPTLLGITMLLATFLIQLERRKGVQSSGIMLTFWLVALVCALAILRSKIMTALKEDAQVDLFRDITFYVYFSLLLIQLVLSCFSDRSPLFSETIHDPNPCPESSASFLSRITFWWITGLIVRGYRQPLEGSDLWSLNKEDTSEQVVPVLVKNWKKECAKTRKQPVKVVYSSKDPAQPKESSKVDANEEVEALIVKSPQKEWNPSLFKVLYKTFGPYFLMSFFFKAIHDLMMFSGPQILKLLIKFVNDTKAPDWQGYFYTVLLFVTACLQTLVLHQYFHICFVSGMRIKTAVIGAVYRKALVITNSARKSSTVGEIVNLMSVDAQRFMDLATYINMIWSAPLQVILALYLLWLNLGPSVLAGVAVMVLMVPVNAVMAMKTKTYQVAHMKSKDNRIKLMNEILNGIKVLKLYAWELAFKDKVLAIRQEELKVLKKSAYLSAVGTFTWVCTPFLVALCTFAVYVTIDENNILDAQTAFVSLALFNILRFPLNILPMVISSIVQASVSLKRLRIFLSHEELEPDSIERRPVKDGGGTNSITVRNATFTWARSDPPTLNGITFSIPEGALVAVVGQVGCGKSSLLSALLAEMDKVEGHVAIKGSVAYVPQQAWIQNDSLRENILFGCQLEEPYYRSVIQACALLPDLEILPSGDRTEIGEKGVNLSGGQKQRVSLARAVYSNADIYLFDDPLSAVDAHVGKHIFENVIGPKGMLKNKTRILVTHSMSYLPQVDVIIVMSGGKISEMGSYQELLARDGAFAEFLRTYASTEQEQDAEENGVTGVSGPGKEAKQMENGMLVTDSAGKQLQRQLSSSSSYSGDISRHHNSTAELQKAEAKKEETWKLMEADKAQTGQVKLSVYWDYMKAIGLFISFLSIFLFMCNHVSALASNYWLSLWTDDPIVNGTQEHTKVRLSVYGALGISQGIAVFGYSMAVSIGGILASRCLHVDLLHSILRSPMSFFERTPSGNLVNRFSKELDTVDSMIPEVIKMFMGSLFNVIGACIVILLATPIAAIIIPPLGLIYFFVQRFYVASSRQLKRLESVSRSPVYSHFNETLLGVSVIRAFEEQERFIHQSDLKVDENQKAYYPSIVANRWLAVRLECVGNCIVLFAALFAVISRHSLSAGLVGLSVSYSLQVTTYLNWLVRMSSEMETNIVAVERLKEYSETEKEAPWQIQETAPPSSWPQVGRVEFRNYCLRYREDLDFVLRHINVTINGGEKVGIVGRTGAGKSSLTLGLFRINESAEGEIIIDGINIAKIGLHDLRFKITIIPQDPVLFSGSLRMNLDPFSQYSDEEVWTSLELAHLKDFVSALPDKLDHECAEGGENLSVGQRQLVCLARALLRKTKILVLDEATAAVDLETDDLIQSTIRTQFEDCTVLTIAHRLNTIMDYTRVIVLDKGEIQEYGAPSDLLQQRGLFYSMAKDAGLV
B1 was tested, and the Km [1] was 43 µM and the Km [2] was 1.2 µM.
